Laboratory results: the domain aggregation screens of Martell et al. (2025)

Test: soluble fraction after stress (log2 fold change); higher = more stays soluble; pooled small domains, quantitative proteomics
Conditions: stress: 75 degC
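Note: 20 min heating vs room temperature control held 20 min.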

Sequence | soluble fraction (log2)
HMKQEFEMGLPNGVGEQMLAHAIEKFDVKLEHSEFGPKLIGTYEELEKAKVFLYEAIEARLNQLE | 0.279
HMKQISNTDELETMVKKIIDDNEEQVNKYRGGNEKLFGWFVGQAMKNTGGTANPKVVNEILSKLLK | -0.0646
HMKQLLHLVIGGELKDVRGIEFEDLSKIDFVGAFPSYKAAYDAWKNAAQRTVDNAEMRYFILHAHR | -1.92
HMKQLRVLGIVKAGSILKNSDGSIEFVIEDSGKSLLVKYKGVIPDIFKDGVEAVVEGDLRGSVFNADKLF | -1.14
HMKQMNETQQKAFEIYLDSATFETDYKPISEEQLAAKLDALGLKGSSSSINRWKKDFNWAQALQNKVTLAM | -0.166
HMKQQNFADLAGRFVFNADNEVVFNFGKHKNVPVATVLKNEPGYYGWMMGGDFPLFTKKILKQIKEA | -1.05
HMKQTFGAMLAALRKEKGMTQLELAEQMGVTDKAVSKWERDLSFPDVTSLPRLAEILEVSVDELMQ | -0.146
HMKQVNVVSVIGQSEANAKTTLTGLGLKVNVAYEEDTSKADGIVLKQSLEGGKTVNEGTTITITVNKIA | 0.579
HMKQVSDTGAIDAAIREVMDANPDKVAEYRSGKDKLFGFFVGQIMRAMAGKAAPVVVNDRLKALLD | 0.123
HMKQVTVGGTINAGGARIYADSYGNGGGRQTFGSDPIYTVLQERNGYILTRWHKLSSGYTGWFKKSDVSA | -0.917
HMKQYSFEISKADFKKISENFNFKIINEINDSLIISLNDKNINLDELLIFFVERKIKVRSIENI | -3.69
HMKREELTQQTKQNLREAFWSLYIQKPIEKITVKEITDIAGYNRGTFYLYYKDTYDLLAKIE | -0.279
HMKRLLLPGDLAGVRRHLLDRENSFHILRVLRLARGSTIEAMDDAGNRFSATLAGVKAGRALFDLAAKI | -1.75
HMKRLPAQMGGGDGVLRVPGLNNFVYVTIADKTLPAFNNRVPPKKGLRIWVGYSPEEPNLFQVLSTRTD | -1.83
HMKRLPMRKIRDVLRLSADGLSTRKIGVSLTIGRTTVQAYLDRAAEVDLSWPLPPEMSDTDLERLIYPR | -3.14
HMKRNLVSVLDHIVGIGPKRRQSLRTHFGSLEKIKEASVEELAAAPGMNRTSAEAVRHFFDAQQELRGK | 0.727
HMKRRSVIVSVVRAQVRQSADEAAAVVFEAEKNVSLDYLETMPGGWVKVRHRDGQTGFVRVNQIWG | -1.59
HMKRSFGYIRLLPSKRYQASYIGPDSQRHAAPETFTRKMDAEGWLSAERRLIEWDQWTSPEQRAAQARLD | -0.663
HMKRTRLEEAMDWLREQLNDGPVAYATLKDEAPKAEITLSTLRAAGEALRVDKQKKGVQWGGWTWSLPR | 0.00234
HMKRVTRQRTEILRVIDESERPLGPQEILQAGREAIPSLSIATIYRTLRDLLAEELIKTVALPGDSPRYES | -1.33
HMKSARDDILSALDKAGEPLSMKDIAELSGRKLSTLRAQMTRLVAEGAVQATAAAHSPDRKYRK | -0.319
HMKSARQIAILEIIAEKSIETQEDLADALRLRGFQVTQATVSRDIKELRLVKALAPDGTYRYATAEK | -1.57
HMKSEIRKKNSQIILDAAEHEFSVHGYRGTSVQMIADRSGLPKANLHYYYKSKSALYGAVLDRIL | 0.215
HMKSERHALILSLIEKKNVETQEDLAELLKERGVAVTQATVSRDIKELRLIKVLSETGGYKYATVDKAE | -0.908
HMKSIETVAELVAELKKLNPNAKISNIDGTYTLEEDINTITLPKDFKYDNNLGINNKIDDFTPYISLDVKA | 0.662
HMKSIRIPFILTEGPNSQKITIDIDSDEEFRIGDVFDEDDKLWSINQILISGDRKAKMAIASEVTSISALR | -2.01

Sequence | soluble fraction (log2)
HMKSKYLIKIEGDFDEKDLYKYLINVSIVNHTKNNGFTEVEFYNDNYSLQQNFLKSMLNDGIIITEFKKVE | -0.49
HMKSLHSEVTDRIRQLIVESHLQPGQRVPELEISRDLGVSRTPIREALKVLAAEGLVELLPLRGAMVK | -0.0555
HMKSLLTARQLEVFEIARNKGYWTTPRKISLVELSKLLDISKSTLSVLLHSIEGKVMEEFYEEIRQ | -2.22
HMKSNIIPLSLKKPQRLDIFLTNYFVDLSRTQIKKMITDGNIKVNDLIAKPSLKLIGDEIIFYTLPK | -1.46
HMKSNNPLDHVRVKQRGASWAYYFEKAKVDGKRRRGEGGGYATEQDARMAGVEAYNAYIGGGAK | -0.172
HMKSPVKLILRGSIYHIKISAVVNGQRIFVRESSHTTDKREAEQYANKRFAQLVEETEFRTN | -1.18
HMKSQSIFNVKKGDTLSHIAVHVLKKNKQKVTPEAINKMVSNIAFRNKIKNPDLIFPGQKLVLEY | -0.169
HMKSQVVAYSDFVKAVNQKQINEVQIQGDKIRAINKAGEEITVTWLQNDQKLMDDLLDNNVKTIFLE | 0.0189
HMKSSYSGNFKQNVVEYMHNNHLSATETANHFKLGGGSVVLRWERIYYEEGPQALYEERRGR | -1.26
HMKSYAQIAEILSGQQPNTSRKEGSNLAVHADWIDALIAKYGTALRPEEANEVVKKEIGIVFSHVLEN | -0.412
HMKSYQKITPATEGNYLTTYREGDDIKTYEGVKAMYTPADFDASSVREITPEEHQSYQKAKEQALQEETEQ | -0.204
HMKTALDEAKDFLNGALSKGHRPASDVVDEAKEASISEKTLKRAKLAIGIITRKEGFGSEGKWVWELPAR | -0.375
HMKTATAKIKATPFGWLRVRETPSLNGAEIARVNSGESYKILERGEGWIKIKVSDTVEGWVSEAYVELS | -0.244
HMKTEKYIQVISGTVNVRSGPGTSYAEIAKIDASQIYVVTAKEGEWLKISLANGTIGYVAGWLVKEVTG | -1.47
HMKTEVNITPGIIDWIERYVQTDKISSSMTEDFQHWKSGTKKPTFNQVEAFSKAINVPLGYFFLKTPPAE | -0.725
HMKTFSFEILADTVKKQRKAKGMTQAELSEATGINRSMIGQMENMTFKPSIEQLEALSQALDFNVIDLYTE | -0.325
HMKTGHLPVTVIIDGRIISDNLYKTGLSNNWLADQLRKNSIKSSEDVFFAYLNPERKFIYQLRSNS | -1.49
HMKTGNIVMVNLGWKGKYYSIKMFFPQVSKPSRKDVQDQIEKIYPGGKLYTFVVSNYEPGEPMLHA | -1.41
HMKTITLDEAQEIALAEVDGKVTRAVEETDDGRSYYEFDIITNDQKHELEVDASSGKITKNEIDEDYVPS | 0.0581
HMKTITVEDEQAGKRLDKALAELFPHYSRSALEKLIKEGQVLVNKSFVKSKYSLKLGDEISLQFEQL | -0.325
HMKTKILAPIPGSIMVVDVKVGDTVKVGDRLVQLEAMKMENNITSEKAGKITAVLVTAGQKVLQNEVMIEL | -1.01
HMKTLLSMNIKNLRKKKNMTLEELAEKVGTSKQTIQRYESGKISNIPSDKIELLAKYLDTTPAKLMGW | -0.139
HMKTLNKRQQDIINLAREEGFVTVEHLSEYFKVTQQTIRRDLGYLSENLYLARTYGGAFFQS | -0.854
HMKTTKLEELDMQKEFILKNGKYGFGVYIGGKYIGLTDIGTVNSFKDSLQLPVVSLSDIDFKTFAEKF | -1.27
HMKTYEILFDILSRESDYISGEKLAQELGISRTSIWKAIQHLEKEGVHIESVKNKGYKLLSGDLLIAEKI | -1.77
HMKTYGGDNSLHKFDEHHSWMVAKYGPVVKQTINGETKWLKVKKDLTLAQVKKMKLEDVLLPKSQT | -0.534

Sequence | soluble fraction (log2)
HMKVDRLVSMILILLEQQRVGAQELADRFEVSVRTIYRDMEAINQAGIPVRSTSGVGGGFEIM | -0.471
HMKVFREERLQLILEKLIHEKKVVVSDLVKYFNVSPSLIRMDLAELEKRDLILRTHGGAILPD | -2.9
HMKVKEYKLVDWISTFTKNEGYGISQKAAMLLAEFLGDDLSRIANEIEKLKLLVEKGTTINDVHIEENI | -1.09
HMKVLFLESIEGSASMGEIKDVANGYARNFLFPNGFAVPATPKNLKNVEELQAKELEIQTERDNWAA | -0.016
HMKVSDLIGMLGRVTGELAPTGIVLVGNKTWTAISEDASVIASGEQVQVRSVAGLILTVSHQVD | -2.32
HMKVSVPDIMDNSSLRQAEAKLRALGFRVTEPEYISGEKDWVYSVTYKGRTLNAGDKVPHEALLTLHVGNG | -0.163
HMKVTADVVVADRLKAWIISNNLKPGDRLPTEQKLSEELGVARHTLREGIKRLSQLGIIGSRTGSGMYVKN | -1.06
HMKWIEILKSKDGNYALLQDEKDTQFVVASGYNPDAAEDQKWGHGSYFIYWNNKENKAEMLMNAIDLFRYR | -2.21
HMKYEFEFPYWSNKEAKHMIVTINYPNGTRATASIQDNDGSNPDYKRIMEEFGEEQIDANTEEGLKRR | -0.0803
HMKYEGEDEYYASLVTEKIAAIGTVTEESEDAIKEARAAYDALTSAQKKLVTNYDVLDEAEK | -0.144
HMKYGPSTVATLKVARLGEMGAFLDAETGDTSDDILLHKTQQTAPVKVGDEVEVFLYLDPKRRLTASMRV | -0.118
HMKYGPSTVAVLTVVRESEMGAFLDAETGRTNDDILLHKTQQTEPVHIGDQVKVFLYLDPKHRLTASMRVP | -1.03
HMKYNETEFKNLVAKLYNGEIEIVGKFTGLSYPILVKDKYGIMLSQKANLILNYRPTINIALNKTEYAMN | -0.289
HMKYSELLLEIILQSKEHPTAEQIFIEAKKRNPKIVQATVYNNLKNLLAQGRVIRISNPGQPDRYDNT | -1.83
HMKYVDYYATLGVARDADLATITKAYRKLARQTHPDLNQGADNEARFKAAAEAYATLKHPEKRAAYDELGQ | 0.0183
HMKYWTISDLYSKLEEDQVELGAFSEDSNKVTVLDRQGYEHVIKILSSDVPALTELFRKKKVRFAVAG | -1.3
HMKYYIYQGVGASGELTKIAEVTDQKTYTVTGLQAKTTYRFAVSSYNGLRESTKSNIVTVTT | -0.134
HMLAAAVVVYATDKVNVRAEASETADVIGQLEAGSQTTRLEDKDGWSRIDYSNGTQGYMKSEFLSTEAPT | 0.347
HMLADEPTGALDSKTSVQIMALLTEIAQDRLVIMVTHNPELADEYATRIVNLRDGVISDDSDPFNP | -0.0933
HMLAEEAFNKQAATAGYVYRDGSYHPAASVAQYDAMPRNYRTNTMAQELSRSQVESQLQQSQ | 0.752
HMLAGKTYEVQTESGGKWTLVASYNVKSQAIQQAQALLESHKYSGVKVIAESDRKGEEVIFNEQSEVT | -0.0725
HMLALKSGQVVVGTIIRRLDNTTAMLRIGNQLFETSFAKGLPKSNHILLRYDAMQGNRFIFTMVE | -0.635
HMLANLNKELQNDAALLKQKAQGNSNLLAKIQDVEQQMKQVNTSSASDEAKAKELQTLQRKLTAYKKALA | -0.0577
HMLAVSVDKDGKVYIQDSETAVDAVTAKLRAISGNNSEIRIFVRGDADVNYGRIMEIMGVINAAGFRKVAL | -0.111
